Measured values taken from patent US20060153775A1 (BRACCO INTERNATIONAL B V, published 2006).
Non-standard residues stand in square brackets, D forms with d. No end group written: not given here. AEEA = NCCOCCOCC(=O)O

Tests used:
[1] = molecular target: T1, NP-1/Fc (R&D Systems); assay: competition with 250 pM 125I-VEGF165 for plate-coated NP-1/Fc
T1 chain: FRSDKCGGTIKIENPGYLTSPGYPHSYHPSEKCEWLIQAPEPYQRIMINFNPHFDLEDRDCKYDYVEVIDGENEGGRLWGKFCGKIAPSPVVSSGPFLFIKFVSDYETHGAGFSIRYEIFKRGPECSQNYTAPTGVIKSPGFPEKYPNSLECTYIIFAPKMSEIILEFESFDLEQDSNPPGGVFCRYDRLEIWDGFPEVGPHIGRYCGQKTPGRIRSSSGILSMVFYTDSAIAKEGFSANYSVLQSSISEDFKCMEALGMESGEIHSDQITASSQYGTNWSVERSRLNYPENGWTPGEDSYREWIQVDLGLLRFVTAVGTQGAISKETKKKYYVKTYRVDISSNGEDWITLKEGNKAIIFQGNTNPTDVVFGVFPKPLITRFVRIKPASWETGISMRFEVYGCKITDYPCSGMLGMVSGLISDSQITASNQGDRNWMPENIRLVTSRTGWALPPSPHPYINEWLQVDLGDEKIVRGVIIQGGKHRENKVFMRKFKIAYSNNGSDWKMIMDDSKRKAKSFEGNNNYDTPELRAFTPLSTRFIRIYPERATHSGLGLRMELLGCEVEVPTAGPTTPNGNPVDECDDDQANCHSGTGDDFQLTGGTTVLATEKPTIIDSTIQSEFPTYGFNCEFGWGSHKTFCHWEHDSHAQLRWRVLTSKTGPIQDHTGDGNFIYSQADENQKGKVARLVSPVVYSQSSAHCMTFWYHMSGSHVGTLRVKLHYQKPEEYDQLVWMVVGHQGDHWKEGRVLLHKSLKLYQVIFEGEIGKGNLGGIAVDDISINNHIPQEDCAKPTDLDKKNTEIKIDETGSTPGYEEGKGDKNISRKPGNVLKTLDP
Protocol: (§1) Competitive binding assays with microtiter plates coated with NP-1/Fc (R&D systems) were performed using ¹²⁵I-VEGF₁₆₅ as radioligand (Amersham Pharmacia Biotech Cat. No. IM274, Specific Activity: 1000-2500 Ci/mmol). An assay buffer consisting of Hank's Balanced Salt Solution (HBSS), 25 mM HEPES, and 0.1% BSA, pH 7.4 was used, and for all experiments, Assay volume per well was 75 μL. Plates (Nunc MaxiSorp white opaque Microtiter plate [C-bottom, 437796]) were coated by incubating the wells with 75 μL of a solution containing 3 μg/mL NP-1/Fc in D-PBS/0.1% NaAzide overnight at 4° C. after covering with sealing tape (Dynex, VWR Cat. No. 62402-931). The next day all wells, even control wells lacking NP-1/Fc, were blocked 2 hrs with blocking buffer (1% BSA in D-PBS with 0.05% v/v Tween-20) then washed 4× with PBST (D-PBS/0.05% v/v Tween-20) before starting the assay. All points were derived from triplicate wells, and for each set of replicates in NP-1/Fc-coated wells, a companion set in the absence of the receptor was included. […] Solutions were added to 1.2 mL polypropylene tubes conforming to the microtiter format (Costar Cat. No. 29442-602), and transferred from these tubes to microtiter wells, without further dilution, using a multichannel pipetter. After addition of the appropriate solutions, microtiter plates were incubated at 4° C. for 2 hours. Following the incubation, plates were handwashed 5 times with D-PBS containing 0.05% Tween-20 and 0.1% BSA. The plates were blotted dry and 25 μL deionized water and 100 μL scintillation fluid (Optiphase SuperMix, Wallac) were added to each well. Plates were agitated using a Plate Shaker (Hyperion, Cat. No. 4030-100F) for 3-5 minutes and were then counted using a Microplate Scintillation Counter (Wallac Microbeta Trilux). A set of serially diluted ¹²⁵I-VEGF₁₆₅ standard wells ranging from 200 to 0.04 pM were included with each experiment to aid in quantification of the amount of radiolabel bound. VEGF₁₆₅ (Cat. No. 100-20) was obtained from Peprotech.

[2] = molecular target: T2, soluble human KDR/Fc chimera (R&D Systems Inc.) (human, UniProt P35968 20-764); assay: competition with 125I-VEGF165 for plate-coated KDR-Fc
T2 construct: Bought reagent; Fc part of the bought chimera not given, not described

[3] = molecular target: T1, NP-1/Fc (R&D Systems); assay: fluorescence polarization, competition of OG-labeled D41 binding to NP-1/Fc
Protocol: (§2) The ability of various compositions comprising TKPPR monomers or multimers to bind to NP-1/Fc and KDR-Fc was evaluated using FP. […] FP values (mP) for each substrate was measured by titrating the ligand (5-20 nM) with receptor protein using a Jolley Research and Consulting FPM-1 fluorescence Polarization analyzer. In each of these experiments the observed polarization values were plotted against receptor concentration. The mP values for 100% binding of tracer labeled ligand to receptor protein was calculated using the software provided by the vendor.

[4] = molecular target: T3, neuropilin-1 on HUVEC (neuropilin-1-expressing cells) (human, UniProt O14786 22-923); assay: Qdot binding to HUVEC, fluorescence microscopy
T3 construct: whole, on cells; The assay was done on whole HUVEC; also called NP-1; endothelial cells
Protocol: Human umbilical vein endothelial cells (HUVEC) were grown to near confluency on collagen 1-coated 8-well chamber slides (BD Biosciences) in EGM-2 medium (Cambrex). […] The slides were incubated 45 min at 37° C. in a tissue culture incubator with 5% CO₂ then incubated an additional 45 min at room temperature in ambient air. After washing five times with D-PBS (30 sec per wash), the cells were fixed with ice-cold acetone for 2 min, rinsed again with D-PBS, and mounted with SlowFade+Dapi (Molecular Probes). The slide wells were examined with a fluorescence microscope equipped with a filter set optimized for 655 nm quantum dots (Omega).

[5] = molecular target: T4, NP-1/Fc (R&D Systems); assay: fluorescence polarization, competition of OG-labeled D41 binding to NP-1/Fc
T4 construct: Bought reagent; also called Neuropilin-1/Fc; Npn-1
Protocol: as §2

[6] = molecular target: T4, NP-1/Fc (R&D Systems); assay: competition with 250 pM 125I-VEGF165 for plate-coated NP-1/Fc
Protocol: as §1

[7] = molecular target: T4, NP-1/Fc (R&D Systems); assay: fluorescence polarization, OG-labeled ligand (5-20 nM) titrated with NP-1/Fc, 37 C
Protocol: as §2

T3 sequence (O14786 22-923): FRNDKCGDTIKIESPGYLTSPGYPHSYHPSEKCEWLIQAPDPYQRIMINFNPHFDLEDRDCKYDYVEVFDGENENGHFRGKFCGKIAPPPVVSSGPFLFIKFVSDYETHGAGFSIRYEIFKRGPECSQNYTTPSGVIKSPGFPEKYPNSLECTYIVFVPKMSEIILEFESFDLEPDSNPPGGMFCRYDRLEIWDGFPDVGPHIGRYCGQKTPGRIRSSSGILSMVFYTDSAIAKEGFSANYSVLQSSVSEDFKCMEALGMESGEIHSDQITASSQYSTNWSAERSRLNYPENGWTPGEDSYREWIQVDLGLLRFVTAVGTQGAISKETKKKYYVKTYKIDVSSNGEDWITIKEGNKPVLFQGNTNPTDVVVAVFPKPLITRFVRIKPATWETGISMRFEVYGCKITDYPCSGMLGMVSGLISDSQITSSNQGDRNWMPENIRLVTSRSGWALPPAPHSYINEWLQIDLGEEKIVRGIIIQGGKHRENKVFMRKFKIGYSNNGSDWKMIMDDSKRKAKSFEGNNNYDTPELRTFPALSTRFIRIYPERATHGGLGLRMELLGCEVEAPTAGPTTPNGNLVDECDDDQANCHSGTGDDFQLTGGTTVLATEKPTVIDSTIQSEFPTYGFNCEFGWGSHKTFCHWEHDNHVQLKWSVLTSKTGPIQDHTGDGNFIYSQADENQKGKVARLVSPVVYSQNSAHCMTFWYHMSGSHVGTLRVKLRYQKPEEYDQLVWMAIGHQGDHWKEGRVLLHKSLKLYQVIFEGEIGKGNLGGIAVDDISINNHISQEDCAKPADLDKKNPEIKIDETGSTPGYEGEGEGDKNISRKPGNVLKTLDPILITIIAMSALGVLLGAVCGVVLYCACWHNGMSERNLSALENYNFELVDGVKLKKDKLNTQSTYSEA
T2 sequence (P35968 20-764, change not shown): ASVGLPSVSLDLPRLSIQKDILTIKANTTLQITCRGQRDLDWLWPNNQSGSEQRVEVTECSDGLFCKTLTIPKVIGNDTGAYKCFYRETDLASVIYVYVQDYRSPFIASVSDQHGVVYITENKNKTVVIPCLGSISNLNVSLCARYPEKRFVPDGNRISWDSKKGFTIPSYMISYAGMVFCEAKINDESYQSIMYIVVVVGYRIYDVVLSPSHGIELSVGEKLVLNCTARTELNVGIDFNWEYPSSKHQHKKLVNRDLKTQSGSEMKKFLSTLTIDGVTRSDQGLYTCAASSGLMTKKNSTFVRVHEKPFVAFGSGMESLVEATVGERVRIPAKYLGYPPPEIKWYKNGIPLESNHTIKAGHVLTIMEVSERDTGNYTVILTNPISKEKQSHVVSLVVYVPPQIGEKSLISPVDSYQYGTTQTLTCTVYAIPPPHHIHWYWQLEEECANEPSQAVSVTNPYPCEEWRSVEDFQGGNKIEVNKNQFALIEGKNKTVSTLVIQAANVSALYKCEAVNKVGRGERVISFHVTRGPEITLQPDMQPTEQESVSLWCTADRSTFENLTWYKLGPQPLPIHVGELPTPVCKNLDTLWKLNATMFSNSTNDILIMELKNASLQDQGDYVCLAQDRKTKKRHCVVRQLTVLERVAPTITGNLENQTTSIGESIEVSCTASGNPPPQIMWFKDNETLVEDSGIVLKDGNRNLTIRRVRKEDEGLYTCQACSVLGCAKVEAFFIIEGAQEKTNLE

B1: Oregon Green (5-isomer)-GTKPPR-OH (peptide)
peptide: {Oregon Green (5-isomer)}-GTKPPR-OH
notes: also called D44; OG-TKPPR
IC50 [1]: 30 µM
binding result [2]: no binding

B2: VEGF165 (ligand, UniProt P15692-4 27-191, looked up)
chain: APMAEGGGQNHHEVVKFMDVYQRSYCHPIETLVDIFQEYPDEIEYIFKPSCVPLMRCGGCCNDEGLECVPTEESNITMQIMRIKPHQGQHIGEMSFLQHNKCECRPKKDRARQENPCGPCSERRKHLFVQDPQTCKCSCKNTDSRCKARQLELNERTCRCDKPRR
modifications: 125I label on the radioligand form (Amersham IM274)
notes: mature; The labelled and the unlabelled protein are kept as one molecule; also called unlabeled VEGF
IC50 [3]: 0.2 µM
IC50 [1]: 0.0005 µM

B3: Qdots conjugated with monomeric TKPPR (D51) (peptide)
peptide: TKPPR
modifications: also: further groups not given here
notes: The full structure of D51 ([M+H] 1004.5) stands only in a drawing; also called D51-conjugated Qdots; linear monomeric TKPPR-conjugated Qdots
binding result [4]: binds

B4: TKPPR (L-threonyl-L-lysyl-L-prolyl-L-prolyl-L-arginine) (peptide)
peptide: TKPPR
notes: also called D45; TKPPR-OH
IC50 [5]: 80 µM
IC50 [6]: 43 µM

B5: TKPPR tetramer D41, OG-(TKPPR)4 (peptide)
peptide: [AEEA]TKPPR
modifications: also: tetramer of four TKPPR on a branched non-peptide scaffold, one Oregon Green label on scaffold
notes: also called tetrameric TKPPR; fluorescently-labeled TKPPR tetramer
IC50 [6]: 0.13 µM
Kd [7]: 0.025 to 0.05 µM

B6: Tuftsin (TKPR) (peptide)
peptide: TKPR
notes: Naturally occurring tetrapeptide, used as free peptide; also called free tuftsin
IC50 [1]: 280 µM

B7: Qdots conjugated with tetrameric TKPPR (D50) (peptide)
peptide: [AEEA]TKPPR
modifications: also: four TKPPR on a branched scaffold, thiol coupled through LC-SMCC to quantum dots
notes: Many D50 molecules on each 655 nm quantum dot; also called D50-conjugated Qdots; branched tetrameric TKPPR-conjugated Qdots
binding result [4]: binds

B8: TKPPR dimer D40, OG-(TKPPR)2 (peptide)
peptide: [AEEA]TKPPR
modifications: also: dimer on branched bis-acid scaffold carrying one Oregon Green
IC50 [6]: 3 µM

B9: TKPPR tetramer D43 on a lysine core with trioxa Oregon Green at the C-terminal (peptide)
peptide: TKPPR
modifications: also: tetramer: C-terminal Arg of each TKPPR linked to amino groups of branched Lys-Lys(Lys)-Gly core, Gly carries TTDA-Oregon Green
notes: The lysine core (three Lys and one Gly) is not written as a chain of its own; also called Reverse Tetramer; compound 16
IC50 [6]: 8 µM
